# T1: human FcgRIIb extracellular domain (human, UniProt P31994 43-217)
# T1 construct: extracellular domain; also called hFcgRIIb
# T1 sequence (looked up): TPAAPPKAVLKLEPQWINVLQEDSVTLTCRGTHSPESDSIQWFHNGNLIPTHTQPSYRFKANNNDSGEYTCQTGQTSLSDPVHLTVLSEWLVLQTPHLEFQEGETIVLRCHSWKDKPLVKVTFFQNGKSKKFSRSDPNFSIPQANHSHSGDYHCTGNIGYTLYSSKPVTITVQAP
# T2: human FcgRIIa type H extracellular domain (human, UniProt P12318 34-217)
# T2 construct: extracellular domain; also called hFcgRIIaH
# T2 sequence (looked up): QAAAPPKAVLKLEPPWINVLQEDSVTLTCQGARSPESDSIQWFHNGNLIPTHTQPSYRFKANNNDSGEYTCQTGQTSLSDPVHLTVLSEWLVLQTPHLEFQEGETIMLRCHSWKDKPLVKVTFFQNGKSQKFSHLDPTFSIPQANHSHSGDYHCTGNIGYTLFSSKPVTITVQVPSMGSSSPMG
# T3: human FcgRIIa type R extracellular domain (human, UniProt P12318 34-217)
# T3 construct: extracellular domain; also called hFcgRIIaR
# T3 sequence (looked up): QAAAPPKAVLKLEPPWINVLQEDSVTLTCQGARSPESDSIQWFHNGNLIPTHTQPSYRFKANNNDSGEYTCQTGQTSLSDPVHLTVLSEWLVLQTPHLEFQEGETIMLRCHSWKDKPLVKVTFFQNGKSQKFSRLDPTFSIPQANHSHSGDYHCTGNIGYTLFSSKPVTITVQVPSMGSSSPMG
# B1: A375-G1T3/B167-Lamlib (antibody, human IgG1, lambda)
# heavy: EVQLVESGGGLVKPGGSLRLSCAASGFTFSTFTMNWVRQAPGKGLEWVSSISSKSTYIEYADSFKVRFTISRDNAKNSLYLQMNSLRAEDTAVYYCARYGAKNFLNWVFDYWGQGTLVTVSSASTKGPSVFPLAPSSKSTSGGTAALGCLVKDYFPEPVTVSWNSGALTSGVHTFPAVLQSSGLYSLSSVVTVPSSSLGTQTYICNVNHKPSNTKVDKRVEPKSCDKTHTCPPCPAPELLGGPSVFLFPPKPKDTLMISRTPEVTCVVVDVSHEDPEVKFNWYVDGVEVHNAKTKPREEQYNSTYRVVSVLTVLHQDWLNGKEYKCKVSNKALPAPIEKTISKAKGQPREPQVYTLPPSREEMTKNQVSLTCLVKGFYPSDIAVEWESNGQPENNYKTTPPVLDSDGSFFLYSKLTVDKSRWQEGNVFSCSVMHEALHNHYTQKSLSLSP
# light: QSALTQPPSASGSPGQTVTISCTGTRYDVGYYEYVSWYQQHPGKAPKLMIYETSKRLSGVPDRFSGSKSGNTASLTVSGLQAEDEADYYCSSYRYEHQVSFGGGTKLTVLGQPKAAPSVTLFPPSSEELQANKATLVCLISDFYPGAVTVAWKADSSPVKAGVETTTPSKQSNNKYAASSYLSLTPEQWKSHRSYSCQVTHEGSTVEKTVAPTECS
# notes: copies: 2 + 2
# B2: A375-MY201a/B167-Lamlib (antibody, human IgG1, lambda)
# heavy: EVQLVESGGGLVKPGGSLRLSCAASGFTFSTFTMNWVRQAPGKGLEWVSSISSKSTYIEYADSFKVRFTISRDNAKNSLYLQMNSLRAEDTAVYYCARYGAKNFLNWVFDYWGQGTLVTVSSASTKGPSVFPLAPSSKSTSGGTAALGCLVKDYFPEPVTVSWNSGALTSGVHTFPAVLQSSGLYSLSSVVTVPSSSLGTQTYICNVNHKPSNTKVDKRVEPKSCDKTHTCPPCPAPELLNGPSVFLFPPKPKDTLMISRTPEVTCVVVDVSDEDPEVKFNWYVDGVEVHNAKTKPREEQYNSTYRVVSVLTVLHQDWLNGKEYKCKVSNKALPKPIEKTISKAKGQPREPQVYTLPPSREEMTKNQVSLTCLVKGFYPSDIAVEWESNGQPENNYKTTPPVLDSDGSFFLYSKLTVDKSRWQQGNVFSCSVMHEALHNHYTQKSLSLSP
# light: QSALTQPPSASGSPGQTVTISCTGTRYDVGYYEYVSWYQQHPGKAPKLMIYETSKRLSGVPDRFSGSKSGNTASLTVSGLQAEDEADYYCSSYRYEHQVSFGGGTKLTVLGQPKAAPSVTLFPPSSEELQANKATLVCLISDFYPGAVTVAWKADSSPVKAGVETTTPSKQSNNKYAASSYLSLTPEQWKSHRSYSCQVTHEGSTVEKTVAPTECS
# notes: copies: 2 + 2
# B3: A375-TT11/B167-Lamlib (antibody, human IgG1, lambda)
# heavy: EVQLVESGGGLVKPGGSLRLSCAASGFTFSTFTMNWVRQAPGKGLEWVSSISSKSTYIEYADSFKVRFTISRDNAKNSLYLQMNSLRAEDTAVYYCARYGAKNFLNWVFDYWGQGTLVTVSSASTKGPSVFPLAPSSKSTSGGTAALGCLVKDYFPEPVTVSWNSGALTSGVHTFPAVLQSSGLYSLSSVVTVPSSSLGTQTYICNVNHKPSNTKVDKKVEPKSCDKTHTCPPCPAPEYLGGDSVFLFPPKPKDVLMISRTPEVTCVVVDVSHEDPEVKFNWYVDGVEVHNAKTKPREEQYNSTYRVVSVLPVLHQDWLNGKEYKCKVSNKALPKPIEKTISKAKGQPREPQVYTLPPSREEMTKNQVSLTCLVKGFYPSDIAVEWESNGQPENNYKTTPPVLDSDGSFFLYSKLTVDKSRWQQGNVFSCSVMHEALHNHYTQKSLSLSP
# light: QSALTQPPSASGSPGQTVTISCTGTRYDVGYYEYVSWYQQHPGKAPKLMIYETSKRLSGVPDRFSGSKSGNTASLTVSGLQAEDEADYYCSSYRYEHQVSFGGGTKLTVLGQPKAAPSVTLFPPSSEELQANKATLVCLISDFYPGAVTVAWKADSSPVKAGVETTTPSKQSNNKYAASSYLSLTPEQWKSHRSYSCQVTHEGSTVEKTVAPTECS
# notes: copies: 2 + 2
# B4: A375-MY201aPh/B167-Lamlib (antibody, human IgG1, lambda)
# heavy: EVQLVESGGGLVKPGGSLRLSCAASGFTFSTFTMNWVRQAPGKGLEWVSSISSKSTYIEYADSFKVRFTISRDNAKNSLYLQMNSLRAEDTAVYYCARYGAKNFLNWVFDYWGQGTLVTVSSASTKGPSVFPLAPSSKSTSGGTAALGCLVKDYFPEPVTVSWNSGALTSGVHTFPAVLQSSGLYSLSSVVTVPSSSLGTQTYICNVNHKPSNTKVDKRVEPKSCDKTHTCPPCPAPELWNGPSVFLFPPKPKDTLMISRTPEVTCVVVDVSDEDPEVKFNWYVDGVEVHNAKTKPREEQYNSTYRVVSVLTVLHQDWLNGKEYKCKVSNKALPKPIEKTISKAKGQPREPQVYTLPPSREEMTKNQVSLTCLVKGFYPSDIAVEWESNGQPENNYKTTPPVLDSDGSFFLYSKLTVDKSRWQQGNVFSCSVMHEALHNHYTQKSLSLSP
# light: QSALTQPPSASGSPGQTVTISCTGTRYDVGYYEYVSWYQQHPGKAPKLMIYETSKRLSGVPDRFSGSKSGNTASLTVSGLQAEDEADYYCSSYRYEHQVSFGGGTKLTVLGQPKAAPSVTLFPPSSEELQANKATLVCLISDFYPGAVTVAWKADSSPVKAGVETTTPSKQSNNKYAASSYLSLTPEQWKSHRSYSCQVTHEGSTVEKTVAPTECS
# notes: copies: 2 + 2
# How the values were obtained:
# [1] = target: T4, human FcgRIIIa F158 extracellular domain (human, UniProt P08637 17-208); test: SPR 25C
# T4 construct: extracellular domain; also called hFcgRIIIaF
# Description: (§1) Biacore T200 (GE Healthcare) was used to evaluate the binding activity to the respective human Fcγ receptor (hereafter referred to as FcγR). Measurement was performed at 25° C. using 50 mM phosphate, 150 mM NaCl, 0.05 w/v %-P20, pH 7.4 as buffer. About 1000 RU of antibody was captured using a sensor chip immobilized with CaptureSelect™ Human Fab-lambda Kinetics Biotin Conjugate (Thermo Fisher Scientific) as a molecule for ligand capturing. Human FcγR was diluted to 8 nM for FcγRIa and 1000 nM for other FcγR in the measurement buffer, and it was interacted to the captured antibody. The binding activity of each antibody to FcγR was assessed by calculating the binding amount of FcγR (RU) per unit amount of antibody using Biacore T200 Evaluation Software 2.0.
# [2] = target: T1, human FcgRIIb extracellular domain; test: SPR 25C
# Description: as §1
# [3] = target: T2, human FcgRIIa type H extracellular …; test: SPR 25C
# Description: as §1
# [4] = target: T5, human FcgRIa extracellular domain (human, UniProt P12314 16-292); test: SPR 25C
# T5 construct: extracellular domain; also called hFcgRIa
# Description: as §1
# [5] = target: T6, human FcgRIIIa V158 extracellular domain (human, UniProt P08637 17-208); test: SPR 25C
# T6 construct: extracellular domain; also called hFcgRIIIaV
# Description: as §1
# [6] = target: T3, human FcgRIIa type R extracellular …; test: SPR 25C
# Description: as §1
# human FcRn = human FcRn (human, UniProt P55899 24-290; P61769 21-119); test: SPR 25C pH 6.0, steady state
# Description: Biacore T200 (GE Healthcare) was used to assess the binding activity to human FcRn. Measurement was performed at 25° C. using 50 mM phosphate, 150 mM NaCl, 0.05 w/v %-P20, pH 6.0 as buffer. Human FcRn proteins used for this determination were prepared by the procedure described in WO2010107110. About 400 RU of antibody was captured using a sensor chip immobilized with CaptureSelect™ Human Fab-lambda Kinetics Biotin Conjugate (Thermo Fisher Scientific) as a molecule for ligand capturing, followed by the binding of human FcRn diluted in measuring buffer. The activity of the respective antibodies to bind FcRn was assessed by calculating KD(mol/L) by the steady-state model using Biacore T200 Evaluation Software 2.0.
# T4 sequence (P08637 17-208): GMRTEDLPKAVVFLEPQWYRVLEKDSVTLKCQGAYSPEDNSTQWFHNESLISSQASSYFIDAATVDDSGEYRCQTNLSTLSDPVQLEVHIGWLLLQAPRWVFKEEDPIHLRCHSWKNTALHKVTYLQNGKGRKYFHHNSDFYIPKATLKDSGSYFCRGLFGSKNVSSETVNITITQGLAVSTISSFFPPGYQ
# Chain of human FcRn (P55899 24-290 limits assumed, chain 1 of 2): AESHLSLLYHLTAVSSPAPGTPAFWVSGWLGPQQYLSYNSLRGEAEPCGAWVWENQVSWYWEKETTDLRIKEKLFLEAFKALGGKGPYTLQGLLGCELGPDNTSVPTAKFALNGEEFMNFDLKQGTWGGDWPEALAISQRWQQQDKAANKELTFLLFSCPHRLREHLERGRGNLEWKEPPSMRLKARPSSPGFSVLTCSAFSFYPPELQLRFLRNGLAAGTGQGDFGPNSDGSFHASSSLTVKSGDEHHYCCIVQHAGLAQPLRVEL
# Chain of human FcRn (P61769 21-119 limits assumed, chain 2 of 2): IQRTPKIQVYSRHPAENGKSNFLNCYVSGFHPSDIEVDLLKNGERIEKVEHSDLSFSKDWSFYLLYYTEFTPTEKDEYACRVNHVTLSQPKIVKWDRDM
# T6 sequence (P08637 17-208 F176V): as the sequence (P08637 17-208) above, with F160V counted along it
# T5 sequence (P12314 16-292): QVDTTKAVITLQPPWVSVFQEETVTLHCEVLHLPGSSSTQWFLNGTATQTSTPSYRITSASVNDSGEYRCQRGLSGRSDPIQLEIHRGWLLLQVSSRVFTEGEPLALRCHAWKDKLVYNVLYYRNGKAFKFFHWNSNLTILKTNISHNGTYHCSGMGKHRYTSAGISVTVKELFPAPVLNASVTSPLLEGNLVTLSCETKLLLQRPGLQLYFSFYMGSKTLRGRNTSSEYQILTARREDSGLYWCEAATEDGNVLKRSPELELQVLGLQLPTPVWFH
Binder,binding per 1RU antibody [1],relative binding (A375-G1T3/B167-Lamlib=1) [1],binding per 1RU antibody [2],relative binding (A375-G1T3/B167-Lamlib=1) [2],binding per 1RU antibody [3],relative binding (A375-G1T3/B167-Lamlib=1) [3],binding per 1RU antibody [4],relative binding (A375-G1T3/B167-Lamlib=1) [4],binding per 1RU antibody [5],relative binding (A375-G1T3/B167-Lamlib=1) [5],binding per 1RU antibody [6],relative binding (A375-G1T3/B167-Lamlib=1) [6],Kd (human FcRn)
B1,0.0213 RU,1,0.011 RU,1,0.0567 RU,1,0.0813 RU,1,0.07 RU,1,0.0463 RU,1,1270 nM
B2,0.0007 RU,0.04,0.0401 RU,3.66,0.0534 RU,0.94,0.0396 RU,0.49,0.0024 RU,0.03,0.0338 RU,0.73,1190 nM
B3,-0.0009 RU,-0.04,0.0477 RU,4.35,0.002 RU,0.03,–,–,-0.001 RU,-0.01,–,–,1560 nM
B4,0.0007 RU,0.03,0.0313 RU,2.85,0.0328 RU,0.58,0.004 RU,0.05,0.0011 RU,0.02,0.0335 RU,0.72,1180 nM

# From patent US20230272099A1 (Chugai, published 2023)
